Test results published in US20160024208A1 (Regeneron, published 2016).

T1: N-Term Biotin-Nav1.7 (3-3) peptide, human (same sequence of EC3-3 for mulatta) (human (same sequence of EC3-3 for …, not fully specified; N-terminal biotin attached via a G4S linker)
T1 construct: ELISA peptide
T1 peptide: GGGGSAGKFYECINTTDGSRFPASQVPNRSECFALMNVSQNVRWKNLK

T2: N-Term Biotin-Nav1.7 (3-1) peptide, human (human, not fully specified; N-terminal biotin attached via a G4S linker)
T2 construct: ELISA peptide
T2 peptide: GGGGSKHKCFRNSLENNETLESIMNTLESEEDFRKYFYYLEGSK

T3: Native Nav1.7 (3-1) peptide, rat (rat)
T3 construct: Synthetic peptide; also called Rat Nav1.7 3-1 native
T3 peptide: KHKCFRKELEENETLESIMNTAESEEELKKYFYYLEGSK

T4: N-Term Biotin Nav1.7 (3-1) peptide, mulatta (mulatta (monkey), not fully specified; N-terminal biotin attached via a G4S linker)
T4 construct: Synthetic peptide; also called Mulatta Nav1.7 3-1 N-term biotin; monkey
T4 peptide: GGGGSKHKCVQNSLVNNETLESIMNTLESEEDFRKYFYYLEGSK

T5: N-Term Biotin Nav1.7 (3-1) peptide, mouse (mouse, not fully specified; N-terminal biotin attached via a G4S linker)
T5 construct: Synthetic peptide; also called Mouse Nav1.7 3-1 N-term biotin
T5 peptide: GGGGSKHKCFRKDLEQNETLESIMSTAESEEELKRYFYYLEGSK


How the values were obtained:
[1] = molecular target: T1, N-Term Biotin-Nav1.7 (3-3) peptide, …; assay: ELISA on coated peptide, antibody 1 ug/ml, OD450 grade; Human
Method: Anti-Naᵥ 1.7 antibodies were tested for their ability to bind to the Naᵥ 1.7 peptides. The various peptides were coated overnight onto 96-well Nunc Immunosorp plates at a concentration of 4 μg/mL in PBS, followed by blocking for 1 hour in a suitable blocking agent. For biotinylated peptides, avidin was first coated on Nunc Immunosorp plates at 2 μg/mL in PBS overnight, followed by blocking as described, and the plate was then coated with biotinylated peptides at a concentration of 0.4 μg/mL and incubated for 1 hour at room temperature. Purified anti-Naᵥ 1.7 antibodies were diluted to a final concentration of 0.1 μg/mL and 1.0 μg/mL and added to the wells of the coated microtiter plates followed by incubation for 1 hour at room temperature. Bound antibodies were detected with horseradish peroxidase (HRP) conjugated anti-mouse or anti-human IgG (Jackson Immuno Research Lab, West Grove, Pa.) depending on the antibody species and developed by colorimetric response using tetramethylbenzidine (TMB) substrate (BD Biosciences). Absorbance was read at OD₄₅₀ on a plate reader for 0.1 second.
Values in Table 11 represent absolute binding ranges (at OD450) to plate-coated peptides for antibodies added at 1 μg/ml as follows: OD450<0.2: −; 0.2<OD450<1: +; 1<OD450<2: ++; 2<OD450<4: +++; NT: Not Tested.

[2] = molecular target: T6, full-length human Nav1.7 fused at its N-terminus to GFP, expressed in HEK293 cells (human, UniProt Q15858 1-1988); assay: flow cytometry on Nav1.7-GFP-HEK293, antibody 3.3 nM
T6 construct: Voltage-gated sodium channel alpha subunit; In the Western blot it stood as denatured cell lysate; also called hNav 1.7-GFP-HEK293; Nav 1.7-GFP-HEK293; not shown: green fluorescent protein (GFP) at the N-terminus
Method: (§1) The specificity of binding of anti-Naᵥ 1.7 human antibodies to full-length Naᵥ 1.7 expressed in HEK293 cells was determined by peptide competition experiments using flow cytometry.
(§2) HEK293 cells stably-transfected with full-length Naᵥ 1.7 fused at its N-terminus to GFP (Naᵥ 1.7-GFP-HEK293) were used for this study. Antibody binding to the transfected cells overexpressing Naᵥ 1.7 was compared to binding in the presence of excess peptide and to binding to the parental HEK293 cell line. To perform the binding experiments, adherent cells were collected using 1 mM EDTA in PBS, washed and re-suspended in cold PBS containing 5% FBS. For each binding experiment the anti-Naᵥ 1.7 antibody at a final concentration of 3.3 nM (in PBS/5% FBS) was added to cells either directly or after incubating for 10 min on ice with a 1000-fold molar excess (3.3 uM final concentration in PBS/5% FBS) of synthetic peptide with sequence corresponding to the loop specificity of the antibody. The antibodies designated as H4H391P, H4H443B, H4H448B, and H1M797N were preincubated as described above with a synthetic peptide corresponding to EC loop 3-1 (amino acid residues 269-338 of SEQ ID NO: 670), whereas the antibodies designated as H4H468P and H1 M852N were preincubated with a synthetic peptide corresponding to EC loop 3-3 (amino acid residues 1333-1382 of SEQ ID NO: 670). The antibody or antibody-peptide mixture was then allowed to incubate with cells for 20 min on ice, followed by addition of 500 uL of cold PBS/5% FBS. Cells were collected by centrifugation, resuspended in 500 uL of cold PBS/5% FBS, and then secondary antibody matched to the antibody isotype (either anti-human-Fc conjugated to Cyanine 5 or anti-mouse-Fc conjugated to allophyococyanin) was added. Binding was detected on the flow cytometry instrument and analyzed as percent binding using the instrument software. For FACS analysis appropriate gating was applied so that only healthy, live cells were counted. Background staining of secondary antibodies alone to Naᵥ 1.7-GFP-HEK293 cells was tested and recorded for all samples, and results ranged between 1-2% binding.

[3] = molecular target: T6, full-length human Nav1.7 fused at its …; assay: cell-based or functional assay
[4] = molecular target: T6, full-length human Nav1.7 fused at its …; assay: flow cytometry on Nav1.7-GFP-HEK293, antibody 3.3 nM preincubated with 3.3 uM EC 3-1 peptide as competitor
Method: as §1, §2

[5] = molecular target: T2, N-Term Biotin-Nav1.7 (3-1) peptide, …; assay: ELISA on coated peptide, antibody 1 ug/ml, OD450 grade
Summary of the method: (§3)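 Peptides coated at 4 μg/mL in PBS, or biotinylated peptides captured at 0.4 μg/mL on avidin (2 μg/mL). Antibodies at 0.1 and 1.0 μg/mL, 1 h at room temperature, detected with HRP anti-mouse or anti-human IgG and TMB at OD450. Scores at 1 μg/ml: <0.2 −; 0.2–1 +; 1–2 ++; 2–4 +++.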

[6] = molecular target: T3, Native Nav1.7 (3-1) peptide, rat; assay: as above
Summary of the method: as §3

[7] = molecular target: T4, N-Term Biotin Nav1.7 (3-1) peptide, …; assay: as above
Summary of the method: as §3

[8] = molecular target: T5, N-Term Biotin Nav1.7 (3-1) peptide, …; assay: as above
Summary of the method: as §3

| Binder | OD450 [1] [od] | % Binding Nav1.7 (Stable Line) [2] [%] | Current blocking (Average % inhibition), IonWorks Quattro, 223 nM antibody [3] [%] | % Binding Nav1.7 + 1000x Peptide (Competition Binding) [4] [%] | OD450 [5] [od] | OD450 [6] [od] | OD450 [7] [od] | OD450 [8] [od] |
| --- | --- | --- | --- | --- | --- | --- | --- | --- |
| H1M797N (antibody, V domains shown) VH: QVQLVESGGGVVQPGRSLRLSCAASGFTFSSYGMHWVRQAPGKGLEWVAVISYDGNNKHFADSVKGRFTISRDNSKNTLNLQMNSLRAEDRAVYYCARGASGFVLDIWGQGTMVTVSS VL: DIVMTQTPLSSPVTLGQPASISCRSSQSLVRSDGNTYLSWLQQRPGQPPRLLIYKISNRFSGVPDRFSGSGAGTDFTLKISRVEAEDVGIYFCMQTTQFPFTFGPGTKVDIK | – | 45.4 | -31 | 10.8 | 2 to 4 | 2 to 4 | 2 to 4 | 2 to 4 |
| H1M801N (antibody, V domains shown, also called H1H801N) VH: QVQVVESGGGVVQPGRSLRLSCAASGFTFSNYGMHWVRQAPGKGLEWVTVISYDGSNKNYADSVKGRFTISRDNSKNTLYLQMNSLRAEDTAMYYCARGGSGFAFDIWGQGTMVTVSS VL: DIVMTQTPLSSPVTLGQPASISCRSSQSLVRSDGNTYLSWLQQRPGQPPRLLIYKISNRFSGVPDRFSGSGAGTDFTLKISRVEADDVGVYYCMQTTQFPFTFGPGTKVDIK | – | 49.5 | – | 1.9 | 1 to 2 | 1 to 2 | 2 to 4 | 1 to 2 |
| H1H1006B (antibody, V domains shown, Fully human antibody; also called H4H1006B-1) VH: EVQLVESGPGLVKSSETLSLKCTVSGGSISSSGYYWGWIRQPPGKGLEWIGSIHRSGSTFYNPSLKSRVTISVDTSKSQFSLRLTSVTAADTSVYFCGRHGRDYYYGMDVWGQGTTVTVSS VL: DIQMTQSPSSVSASVGDRVTITCRSSQDINNWLVWYQQKPGKAPKVLIYGASRLQSGVPSRFSGSGSGTDFTLTISSLQPEDFATYYCQQANSFPLTFGGGTKVEIKR | – | – | 64 | – | 2 to 4 | 2 to 4 | 2 to 4 | 2 to 4 |

Further lines, results first:

| OD450 [1] [od] | % Binding Nav1.7 (Stable Line) [2] [%] | Current blocking (Average % inhibition), IonWorks Quattro, 223 nM antibody [3] [%] | % Binding Nav1.7 + 1000x Peptide (Competition Binding) [4] [%] | OD450 [5] [od] | OD450 [6] [od] | OD450 [7] [od] | OD450 [8] [od] | Binder |
| --- | --- | --- | --- | --- | --- | --- | --- | --- |
| 1 to 2 | 64.1 | 7 | – | – | – | – | – | H1M852N (antibody, V domains shown, constant region may differ; also called H4H852N) VH: QVQLVESGGGVVQPGRSLTLSCAASGFMFNRFGMHWVRQAPGKGLDWVAVIWYDGSNKYYADSVKGRFTISRDNSKNTLYLQVNSLRAEDTAVYYCAREGTPHYYDSSGLDYWGQGTLVTVSS VL: AIQMTQSPSSLSAYVGDRVTITCRASQDIRNDLGWYQQKPGKAPNLLIYDISSLQSGVPSRFSGSGSGTDFTLTISSLQPEDFATYYCLQDYNYPLTFGGGTKVEIK |
| – | 68.9 | – | 2.2 | 2 to 4 | 1 to 2 | 2 to 4 | – | H1M836N (antibody, V domains shown) VH: QVQLVESGGGVVQPGRSLRLSCAASGFTFSSYGMHWVRQAPGKGLEWVAVISYDGNNKYYADSVKGRFTISRDNSKNTLYLQMNSLRAEDTAVYYCAKGSAGYALDYWGQGTLVTVSS VL: not shown |
| – | 63 | – | 1.3 | 2 to 4 | – | 2 to 4 | – | H1M879N (antibody, V domains shown, Hybridoma-derived) VH: EVQLVESGGGLVKPGGSLRLSCAASGFTFSSYTIHWVRQAPGKGLEWVSSISSSSSYIYYVDSVKGRFTISRDNAKNSVYLQMNSLRAEDTAVYYCATSSITARGYFDYWGQGTLVTVSS VL: EIVLTQSPATLSLSPGERVTLSCRASQSVSSYLAWYQQKPGQAPRLLIYDASNRATGIPARFSGSGSGTDFTLTISSLEPEDFAVYYCQQRNIWPPTFGQGTKVEIK |
